B1: Amphiregulin (Homo sapiens), P15514 (parent)
chain: MRAPLLPPAPVVLSLLILGSGHYAAGLDLNDTYSGKREPFSGDHSADGFEVTSRSEMSSGSEISPVSEMPSSSEPSSGADYDYSEEYDNEPQIPGYIVDDSVRVEQVVKPPQNKTESENTSDKPKRKKKGGKNGKNRRNRKKKNPCNAEFQNFCIHGECKYIEHLEAVTCKCQQEYFGERCGEKSMKTHSMIDSSLSKIALAAIAAFMSAVILTAVAVITVQLRRQYVRKYEGEAEERKKLRQENGNVHAIA

Variants of: B1
Conditions: with S100A4, P26447
S100A4, P26447, sequence (P26447 whole entry, looked up): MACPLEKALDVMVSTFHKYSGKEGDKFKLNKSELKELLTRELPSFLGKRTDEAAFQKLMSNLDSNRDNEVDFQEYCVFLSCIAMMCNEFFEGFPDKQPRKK

effect of a mutation on the interaction	Variant
decreasing interaction	MRAPLLPPAPVVLSLLILGSGHYAAGLDLNDTYSGKREPFSGDHSADGFEVTSRSEMSSGSEISPVSEMPSSSEPSSGADYDYSEEYDNEPQIPGYIVDDSVRVEQVVKPPQNKTESENTSDKPKRKKKGGKNGKNRRNRKKKNPCNAEFQNFCIHGECKYIEHLEAVTCKLQQEYFGERCGEKSMKTHSMIDSSLSKIALAAIAAFMSAVILTAVAVITVQLRRQYVRKYEGEAEERKKLRQENGNVHAIA [C172L]
decreasing interaction	MRAPLLPPAPVVLSLLILGSGHYAAGLDLNDTYSGKREPFSGDHSADGFEVTSRSEMSSGSEISPVSEMPSSSEPSSGADYDYSEEYDNEPQIPGYIVDDSVRVEQVVKPPQNKTESENTSDKPKRKKKGGKNGKNRRNRKKKNPCNAEFQNFCIHGECKYIEHLEAVTAKCQQEYFGERCGEKSMKTHSMIDSSLSKIALAAIAAFMSAVILTAVAVITVQLRRQYVRKYEGEAEERKKLRQENGNVHAIA [C170A]
decreasing interaction	MRAPLLPPAPVVLSLLILGSGHYAAGLDLNDTYSGKREPFSGDHSADGFEVTSRSEMSSGSEISPVSEMPSSSEPSSGADYDYSEEYDNEPQIPGYIVDDSVRVEQVVKPPQNKTESENTSDKPKRKKKGGKNGKNRRNRKKKNPCNAEFQNFCIHGECKYIEHLEAVTCACQQEYFGERCGEKSMKTHSMIDSSLSKIALAAIAAFMSAVILTAVAVITVQLRRQYVRKYEGEAEERKKLRQENGNVHAIA [K171A]

Variants of: B1
Conditions: with S100A4, P26447
Remark: another data set of the same source

effect of a mutation on the interaction	Variant
decreasing interaction	MRAPLLPPAPVVLSLLILGSGHYAAGLDLNDTYSGKREPFSGDHSADGFEVTSRSEMSSGSEISPVSEMPSSSEPSSGADYDYSEEYDNEPQIPGYIVDDSVRVEQVVKPPQNKTESENTSDKPKRKKKGGKNGKNRRNRKKKNPCNAEFQNFAIHGECKYIEHLEAVTCKCQQEYFGERCGEKSMKTHSMIDSSLSKIALAAIAAFMSAVILTAVAVITVQLRRQYVRKYEGEAEERKKLRQENGNVHAIA [C154A]
decreasing interaction	MRAPLLPPAPVVLSLLILGSGHYAAGLDLNDTYSGKREPFSGDHSADGFEVTSRSEMSSGSEISPVSEMPSSSEPSSGADYDYSEEYDNEPQIPGYIVDDSVRVEQVVKPPQNKTESENTSDKPKRKKKGGKNGKNRRNRKKKNPCNAEFQNLCIHGECKYIEHLEAVTCKCQQEYFGERCGEKSMKTHSMIDSSLSKIALAAIAAFMSAVILTAVAVITVQLRRQYVRKYEGEAEERKKLRQENGNVHAIA [F153L]
